Assay results published in patent US11931406.

Tests used:
[1] = target: influenza HA protein (Flu A HA) (influenza A)
[2] = target: YFV X-SS-prME-XX (yellow fever virus 17D) (yellow fever virus strain 17D) (UniProt P03314)
UniProt P03314, sequence (P03314 92-788 limits assumed): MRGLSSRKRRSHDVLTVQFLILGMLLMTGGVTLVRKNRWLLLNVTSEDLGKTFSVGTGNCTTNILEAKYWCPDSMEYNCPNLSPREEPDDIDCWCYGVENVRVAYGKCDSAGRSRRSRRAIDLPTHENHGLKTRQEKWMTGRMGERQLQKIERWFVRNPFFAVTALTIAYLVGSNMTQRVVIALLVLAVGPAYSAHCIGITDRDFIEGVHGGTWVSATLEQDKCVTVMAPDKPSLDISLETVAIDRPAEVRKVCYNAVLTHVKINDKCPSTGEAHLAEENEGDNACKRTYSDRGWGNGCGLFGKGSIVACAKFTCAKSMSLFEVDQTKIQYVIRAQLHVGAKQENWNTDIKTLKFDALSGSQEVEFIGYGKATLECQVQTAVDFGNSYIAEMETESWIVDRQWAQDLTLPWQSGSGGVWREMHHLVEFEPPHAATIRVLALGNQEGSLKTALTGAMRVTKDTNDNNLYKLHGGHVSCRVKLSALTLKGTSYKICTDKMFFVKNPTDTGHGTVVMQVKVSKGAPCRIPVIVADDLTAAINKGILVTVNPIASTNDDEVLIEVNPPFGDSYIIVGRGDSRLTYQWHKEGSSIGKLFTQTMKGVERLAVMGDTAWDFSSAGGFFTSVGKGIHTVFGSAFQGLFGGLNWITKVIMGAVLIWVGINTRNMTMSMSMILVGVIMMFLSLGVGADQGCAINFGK

Question: How did the FITC positive cells [1] turn out when “anti YF virus specific antibody (sc-58083 from Santa Cruz)” was run?
Answer: 45.1%

Question: What about the FITC positive cells [2] of the same substance?
Answer: 82%
